For test [1], the target named is TNF alpha (species not given). The test is described as follows: cell-based or functional assay.
Test [2] addresses TNF alpha (species not given). The test is described as follows: cell-based or functional assay. The source holds these as a separate data set.

B1: BPC1500 (antibody, V domains shown)
VH: EVQLVESGGGLVQPGRSLRLSCAASGFTFDDHALHWVRQAPGKGLEWVSAITWNSGHIDYADSVEGRFTISRDNAKNSLYLQMNSLRAEDTAVYYCAKVRYLSTASSLDYWGQGTLVTVSS
VL: not shown
Take B1: in test [1], the “IC50 value, L929 neutralisation assay (cell viability)” value stood at 0.13 µg/mL. For the same molecule, in test [2], the “IC50 value, TNFα-induced IL-6 release assay (whole blood)” value stood at 0.11 nM.

Source of the values: US20130243764A1 (published 2013).
